B1: ssDNA ligand 36 (ssDNA)
DNA: ATCCGCCTGATTAGCGATACTCCACAGGCTACGGCACGTAGAGCATCACCATGATCCTGTGACTTGAGCAAAATCACCTGCAGGGG
B2: ssDNA ligand 38 (ssDNA)
DNA: ATCCGCCTGATTAGCGATACTAAAGTCGTGCAGGGTCCCCTGGAAGCATCTCCGATCCCAGACTTGAGCAAAATCACCTGCAGGGG
B3: ssDNA ligand 40 (ssDNA)
DNA: ATCCGCCTGATTAGCGATACTAGTGGAACAGGGCACGGAGAGTCAAACTTTGGTTTCCCCCACTTGAGCAAAATCACCTGCAGGGG
B4: ssDNA ligand 26 (ssDNA)
DNA: ATCCGCCTGATTAGCGATACTAGAGGGGAAGTAGGCTGCCTGACTCGAGAGAGTCCTCCCGACTTGAGCAAAATCACCTGCAGGGG
B5: ssDNA ligand 14 (ssDNA)
DNA: ATCCGCCTGATTAGCGATACTAGGCTTGACAAAGGGCACCATGGCTTAGTGGTCCTAGTACTTGAGCAAAATCACCTGCAGGGG

target: PDGF BB (UniProt P01127 P01127:82-190); assay: filter; biphasic, higher affinity component; settings: chain copies: BB homodimer (inferred)
Sequence (P01127 82-190, one chain of several): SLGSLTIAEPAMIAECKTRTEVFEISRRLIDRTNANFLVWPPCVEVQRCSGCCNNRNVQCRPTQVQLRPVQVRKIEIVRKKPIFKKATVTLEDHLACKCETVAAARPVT
Description: (§1) 22: 1859), and the equilibrium dissociation constants were determined by nitrocellulose filter binding. […] […]-[…]-3') SEQ ID NO: 88, and 26t (5'-[…] T-3') SEQ ID NO: 89.
(§2) The binding data were analyzed according the formalism described in Jellinek et al., 1994: supra.

Row | Binder | Kd [nM]
1 | CCACAGGCTACGGCACGTAGAGCATCACCATGATCCTGTGT (ssDNA, 3'-3' inverted T at 3' end) [36t] | 0.054
2 | TGGGAGGGCGCGTTCTTCGTGGTTACTTTTAGTCCCGT (ssDNA, 3'-3' inverted T at 3' end (described for truncated ligands)) [20t-a] | 0.09
3 | TACTCAGGGCACTGCAAGCAATTGTGGTCCCAATGGGCTGAGTAT (ssDNA, 3'-3' inverted T at 3' end) [41t] | 0.056

target: T1, PDGF AB (Homo sapiens, UniProt P04085;P01127 P04085:87-211,P01127:82-190); assay: filter; biphasic, higher affinity component; settings: tags: R&D Systems 222-AB; chain copies: A/B chain heterodimer (inferred)
T1 sequence (P01127 82-190, chain 2 of 2, other chains not shown): as the sequence (P01127 82-190, one chain of several) above
Description: as §1, §2

Row | Binder | Kd [nM]
4 | CCACAGGCTACGGCACGTAGAGCATCACCATGATCCTGTGT (ssDNA, 3'-3' inverted T at 3' end) [36t] | 0.082
5 | TGGGAGGGCGCGTTCTTCGTGGTTACTTTTAGTCCCGT (ssDNA, 3'-3' inverted T at 3' end (described for truncated ligands)) [20t-a] | 0.082
6 | TACTCAGGGCACTGCAAGCAATTGTGGTCCCAATGGGCTGAGTAT (ssDNA, 3'-3' inverted T at 3' end) [41t] | 0.051

target: PDGF AA (UniProt P04085 P04085:87-211); assay: filter; monophasic; settings: chain copies: AA homodimer (inferred)
Source text: […]-[…]-3') SEQ ID NO: 88, and 26t (5'-[…] T-3') SEQ ID NO: 89.

Row | Binder | Kd [nM]
7 | CCACAGGCTACGGCACGTAGAGCATCACCATGATCCTGTGT (ssDNA, 3'-3' inverted T at 3' end) [36t] | 72

target: T1, PDGF AB; assay: filter; among seven highest affinity ligands; data not shown; settings: tags: R&D Systems 222-AB; chain copies: A/B chain heterodimer (inferred)

Row | Binder | binding result
8 | B1 | binds
9 | B2 | binds
10 | B3 | binds
11 | B4 | binds
12 | B5 | binds

From US5668264, “High affinity PDGF nucleic acid ligands” (NeXstar Pharmaceuticals, Inc.)
